± gives the standard deviation.

The data set in a line: protein stability index of a GFP-peptide fusion (GPS, HEK-293T) (PSI 1-6); higher = more stable. The conditions noted are these: c terminus: a fixed tail appended.
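Further: 24-mer peptide tiles fused after GFP, lentivirally expressed, FACS-sorted into six equal bins by GFP/DsRed ratio, decoded by Illumina sequencing, PSI is the read-weighted mean bin number.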

For the sequence QGSLENMSKLLKRQNDILQVVSQG [CD207], the protein stability index was 3.39 ± 0.22 (treatment: DMSO) and 3.64 ± 0.22 (treatment: MLN4924 1 uM, 8 h).
On the same counts, the results for QKLNPGFDLAKGNAGKVNLPKELP [PLAGL1] are 4.27 ± 0.14 and 4.15 ± 0.3.
On the same counts, the results for QKVLGKALSLIRFPLMTIEEFAAG [BTBD1] are 3.06 ± 0.57 and 2.52 ± 0.38.
As for QLKESKSKIDALSSEKLNLQKDLE [CEP70], the protein stability index was 5.03 ± 0.1 (treatment: DMSO) and 5.16 ± 0.13 (treatment: MLN4924 1 uM, 8 h).
On the same counts, the results for QLLSAMGSLCSLWFGASVLSLLEL [SCNN1D] are 3.2 ± 0.61 and 3.19 ± 0.49.
QLREALKILAERVLILETMIGLYE [EMID1] showed a protein stability index (treatment: DMSO) of 2.31 ± 0.27.
QMMSATAQNREPESVEQLESRIVE [SNX8]: the protein stability index by setting is: (treatment: DMSO) 5.37 ± 0.17; (treatment: MLN4924 1 uM, 8 h) 5.56 ± 0.24.
On the same counts, the results for QNFLDPGYPLPKLDMNFSLENREE [ZNF449] are 5.02 ± 0.24 and 4.74 ± 0.29.
On the same counts, the results for QNQSDSLLALAGAVQRLEGALWGL [SCARA5] are 2.4 ± 0.35 and 2.33 ± 0.32.
With QNVARIPEFELLWKDIIHNPQALS [INTS3], the protein stability index is 2.47 ± 0.34 (treatment: DMSO) and 2.53 ± 0.3 (treatment: MLN4924 1 uM, 8 h).
On the same counts, the results for QPWVEVVLALRNMKNLLFSEMWDI [MFSD9] are 2.78 ± 0.66 and 2.44 ± 0.44.
QPYTCSICRRNFSRRSSLLRHQKL [ZNF75A]: the protein stability index reads like this: (treatment: DMSO) 3.43 ± 0.37; (treatment: MLN4924 1 uM, 8 h) 3.71 ± 0.35.
On the same counts, the results for QQGLGASYRTESAQRQACMYASSA [TBX5] are 3.8 ± 0.17 and 3.82 ± 0.2.
Take QQMVASGTGAVVTSLFMTPLDVVK [SLC25A39]: the protein stability index amounted to 2.8 ± 0.17 (treatment: DMSO) and 2.98 ± 0.21 (treatment: MLN4924 1 uM, 8 h).
QQTGDDDEVDDFEDFIFSHFFGDK [PBXIP1]: the protein stability index runs as follows: (treatment: DMSO) 4.71 ± 0.51; (treatment: MLN4924 1 uM, 8 h) 4.9 ± 0.23.
On the same counts, the results for QRRRRVENAGGSPSPEPAGRRAAL [RSAD1] are 5.11 ± 0.4 and 5.15 ± 0.27.
On the same counts, the results for QRTAKGKPVLAKDSSNPYPNFNFN [AASDHPPT] are 3.43 ± 0.45 and 3.74 ± 0.15.
On the same counts, the results for QSERQRHESQQLATETQALAQRTQ [TEKT4] are 5.43 ± 0.21 and 5.32 ± 0.16.
For QSLPKASPVTTSPTAATTQNPVLS [LCOR], the protein stability index by setting is: (treatment: DMSO) 4.92 ± 0.19; (treatment: MLN4924 1 uM, 8 h) 4.85 ± 0.21.
With QSNLEPLSPMTASSFLSFAELFSY [FEM1A], the protein stability index was found to be 2.26 ± 0.26 (treatment: DMSO) and 2.42 ± 0.3 (treatment: MLN4924 1 uM, 8 h).
On the same counts, the results for QSRSFRILAHLTGTEFMQDPDEEH [PDLIM7] are 3.95 ± 0.11 and 4.17 ± 0.07.
Regarding QTEKLLQFQDLTGIESMDQCRHTL [FAF2], the protein stability index (treatment: DMSO) was determined as 3.82 ± 0.21 and the protein stability index (treatment: MLN4924 1 uM, 8 h) is 3.66 ± 0.33.
For the sequence QTFQWVKLPATMPEPVYFHCAAVT [KLHDC10], the protein stability index by setting is: (treatment: DMSO) 2.28 ± 0.36; (treatment: MLN4924 1 uM, 8 h) 2.33 ± 0.39.
On the same counts, the results for QVAKTKQQIEEQRVQVQVVERAQQ [FLOT1] are 5.18 ± 0.16 and 5.32 ± 0.15.
On the same counts, the results for QVEALAAAGVDHVILAVSYMSQVL [GMPPB] are 2.92 ± 0.65 and 2.48 ± 0.45.
On the same counts, the results for QVFLDRINRADYCPECYPDNPANR [TOR1AIP2] are 2.76 ± 0.33 and 2.9 ± 0.28.
Regarding QVTCSILAYLPFKLEKSIDSYYRL [PCDHGA10], the protein stability index reads like this: (treatment: DMSO) 2.79 ± 1.1; (treatment: MLN4924 1 uM, 8 h) 2.05 ± 0.81.
On the same counts, the results for QVVSQGWKYFKGNFYYFSLIPKTW [CD207] are 2.14 ± 0.41 and 2.1 ± 0.39.
Take QYAMTRAQRVRAAMFPETLDEGMQ [CTNNB1]: the protein stability index runs as follows: (treatment: DMSO) 3.76 ± 0.29; (treatment: MLN4924 1 uM, 8 h) 3.68 ± 0.39.
With QYEVSNFARNGALSTHNWTYWQCG [RSAD1], the protein stability index reads like this: (treatment: DMSO) 2.43 ± 0.25; (treatment: MLN4924 1 uM, 8 h) 2.05 ± 0.23.
On the same counts, the results for QYQANKVTHTLTMRQRISRVEESA [PPEF2] are 3.65 ± 0.16 and 3.77 ± 0.16.
As to QYRPSDLLCPETYVWVPIEQCLPS [ATE1], the protein stability index amounted to 2.28 ± 0.23 (treatment: DMSO) and 2.47 ± 0.28 (treatment: MLN4924 1 uM, 8 h).
With RAGEGFIICYSITDRRSFHEVREF [RIT1], the protein stability index is 3.04 ± 0.81 (treatment: DMSO) and 2.48 ± 0.71 (treatment: MLN4924 1 uM, 8 h).
Turning to RASFWLALVGCVISDNPERYSTNL [EDNRA], the protein stability index runs as follows: (treatment: DMSO) 2.85 ± 0.68; (treatment: MLN4924 1 uM, 8 h) 2.97 ± 0.62.
On the same counts, the results for RCEMEAQNQEYKMLLDIKTRLEQE [KRT15] are 4.44 ± 0.17 and 4.6 ± 0.18.
Regarding RDIDLKNRRGGPPFAFVEFEDPRD [SRSF1], the protein stability index (treatment: DMSO) worked out at 4.03 ± 0.35 and the protein stability index (treatment: MLN4924 1 uM, 8 h) is 4.27 ± 0.18.
On the same counts, the results for RDSLTQPDEEPMHYGNIMYDRRVI [RSPH3] are 3.62 ± 0.45 and 3.8 ± 0.23.
On the same counts, the results for REAVSQLRELCRLWLRPETHTKEQ [ZNF24] are 2.8 ± 0.32 and 3.03 ± 0.41.
On the same counts, the results for RELLLDGGYLQRTTYDRRSSQERK [RSPH3] are 4.39 ± 0.28 and 4.8 ± 0.24.
Sequence RENMSDGDTSATESGDEVPVELYT [KMT2E] came in with a protein stability index (treatment: DMSO) of 5.32 ± 0.21 and a protein stability index (treatment: MLN4924 1 uM, 8 h) of 5.21 ± 0.22.
On the same counts, the results for REVMESAVGNSSGSGQNEESPRKR [FBXO28] are 5.51 ± 0.14 and 5.49 ± 0.38.
Consider RFFACPSKATFSRNIMNLIDIVAI [KCNA3], for which the protein stability index (treatment: DMSO) was 2.8 ± 0.61 and the protein stability index (treatment: MLN4924 1 uM, 8 h) amounted to 2.87 ± 0.46.
On the same counts, the results for RFFASSSLHHTSECTQMDHLGCMH [ALDH8A1] are 2.87 ± 0.22 and 2.85 ± 0.32.
On the same counts, the results for RFFIDFPHIEEQQKKIESYLHNHF [TENT5D] are 2.13 ± 0.38 and 2.35 ± 0.18.
Take RGDIFERIVHLQETCDLGKIKPEA [NLN]: the protein stability index runs as follows: (treatment: DMSO) 3.59 ± 0.37; (treatment: MLN4924 1 uM, 8 h) 3.6 ± 0.29.
On the same counts, the results for RGFMEMNGRGELVESLKRFCASTR [AUP1] are 2.54 ± 0.3 and 2.73 ± 0.18.
In the case of RGGGAAGAGGGGSGAGGGSGGSGG [KLHDC10], the protein stability index reads like this: (treatment: DMSO) 5.2 ± 0.66; (treatment: MLN4924 1 uM, 8 h) 4.89 ± 0.48.
Take RHFGTILNYLRDGSVPLPESTREL [KCTD13]: the protein stability index reads like this: (treatment: DMSO) 2.78 ± 0.16; (treatment: MLN4924 1 uM, 8 h) 2.94 ± 0.41.
On the same counts, the results for RIKIWDVYTGKLLLNLVDHTEVVR [WSB1] are 2.61 ± 0.59 and 2.57 ± 0.34.
On the same counts, the results for RIPYTKSQTEAHYSCQSKEILRYM [P2RY14] are 2.42 ± 0.32 and 2.45 ± 0.49.
With RIRIDDEPANLDILDTAGQAEFTA [RIT1], the protein stability index by setting is: (treatment: DMSO) 4.62 ± 0.23; (treatment: MLN4924 1 uM, 8 h) 4.77 ± 0.11.
On the same counts, the results for RKGKDKENGSVSSSETPPPPPPPN [EIF5] are 5.15 ± 0.2 and 5.22 ± 0.28.
In the case of RKHSDLEEEEERWEWSPAGLQSYQ [SERTAD3], the protein stability index runs as follows: (treatment: DMSO) 4.35 ± 0.26; (treatment: MLN4924 1 uM, 8 h) 4.38 ± 0.17.
